Test results taken from patent publication US20210163606A1 (ATYR PHARMA, published 2021).

What was measured:
[1] = target: T1, human NRP2 variant 2 (hNRP2), untagged, on Expi293 cells (Human, UniProt O60462 23-931); experiment: flow cytometry on Expi293-hNRP2 clonal cells
T1 construct: Transcript NM_003872 / NP_003863.2; also called Expi293-hNRP2 clonal cells; Human NRP2a (version 2)
T1 sequence: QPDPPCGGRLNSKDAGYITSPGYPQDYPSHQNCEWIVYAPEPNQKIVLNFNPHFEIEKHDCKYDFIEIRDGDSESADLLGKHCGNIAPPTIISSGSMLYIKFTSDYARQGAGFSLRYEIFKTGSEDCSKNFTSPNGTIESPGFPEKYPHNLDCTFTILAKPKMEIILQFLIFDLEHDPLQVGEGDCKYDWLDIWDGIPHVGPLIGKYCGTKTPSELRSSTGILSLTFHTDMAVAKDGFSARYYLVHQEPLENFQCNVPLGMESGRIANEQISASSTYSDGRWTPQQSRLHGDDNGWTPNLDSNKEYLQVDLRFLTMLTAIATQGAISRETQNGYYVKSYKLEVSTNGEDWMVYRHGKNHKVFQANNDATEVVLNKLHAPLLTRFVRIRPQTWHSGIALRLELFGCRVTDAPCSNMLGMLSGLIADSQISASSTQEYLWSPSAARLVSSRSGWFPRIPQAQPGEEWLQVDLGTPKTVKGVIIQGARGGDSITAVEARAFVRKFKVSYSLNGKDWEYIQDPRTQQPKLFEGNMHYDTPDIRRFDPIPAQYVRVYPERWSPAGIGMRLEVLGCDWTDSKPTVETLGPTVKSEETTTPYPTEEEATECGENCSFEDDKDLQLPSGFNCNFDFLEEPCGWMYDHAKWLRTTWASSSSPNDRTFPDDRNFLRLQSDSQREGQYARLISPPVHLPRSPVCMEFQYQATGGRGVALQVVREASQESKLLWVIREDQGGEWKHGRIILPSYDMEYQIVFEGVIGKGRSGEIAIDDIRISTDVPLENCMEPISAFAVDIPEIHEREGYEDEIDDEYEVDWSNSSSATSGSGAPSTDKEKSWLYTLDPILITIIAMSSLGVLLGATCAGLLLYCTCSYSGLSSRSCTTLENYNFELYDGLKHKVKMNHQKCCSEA
Procedure: Expi293-hNRP2 clonal cells were collected by centrifugation at 300 g for 5 minutes, and washed twice by DPBS (with calcium and magnesium, ThermoFisher Cat #14040133). Washed cells were added to a 96-well V-bottom plate (ThermoFisher Cat #1424572) at 100,000 cells/well in […] of DPBS added with Zombie Violet viability stain (Biolegend Cat #423114, diluted at 1:500). From this step on, cells were protected from light. Cells were kept at room temperature for 10 min and pelleted down at 300 g for 5 minutes at 4° C. Supernatants containing Zombie Violet were discarded, and without washing, 30 uL of antibodies diluted in the flow wash buffer (FWB, DPBS plus 2% FBS and 0.1% sodium azide to inhibit receptor internalization) were added to the cells. For anti-NRP2 antibody staining on Expi293-hNRP2 clonal cells, in-house human anti-NRP2 antibodies were tested at final concentrations of 0.006-100 nM at 4-fold dilutions. […] Binding was allowed to proceed on ice for 40-60 minutes. Cells were then pelleted at 300 g for 5 minutes at 4° C., supernatants removed, and cells washed twice by adding 150 μL of FWB and centrifuging the cells again in the same conditions. To detect a-NRP2 binding on the cell surface, Cy3-conjugated goat anti-human IgG Fc (Jackson ImmunoResearch Cat #109165098) was added to the cells at a final concentration of 3 μg/mL in 30 μL of FWB. After 30-40 minutes of incubation on ice, cells were pelleted at 300 g for 5 minutes at 4° C. and supernatants removed, and the cells were washed twice as described previously. Cells were then resuspended in FWB before acquisition on the Cytoflex. Gains were set based on staining controls. Cells were collected with typically more than 10,000 events. Cells were then analyzed on FlowJo analysis software by excluding dead cells and gating singlets. The statistical analysis was performed using GraphPad Prism. A four-parameter variable-slope curve was fitted to the data ([agonist] vs. response) using non-linear regression, and the EC₅₀ and r2 for each curve was determined.
The EC₅₀ of four anti-NRP2 antibodies directed against different domains of NRP2, were measured for binding to Expi293-hNRP2 clonal cells (see Table E1 and FIG. 3).

[2] = target: T2, Cynomolgus NRP2 (aa23-854) with C-terminal Fc-tag (cynomolgus monkey); experiment: SPR (ProteOn XPR36), antibody captured on anti-human Fab-kappa, cyno NRP2-Fc as analyte, bivalent analyte fit
T2 construct: range 23-854; sensorgrams fitted to a bivalent analyte model; also called Cynomolgus NRP2 antigen protein
Procedure: Anti-NRP2 antibody binding and affinity measurements. […] SPR experiments were conducted on a Bio-Rad ProteOn XPR36 Protein Interaction Array instrument. Biotinylated anti-human antibody (ThermoFisher Cat #7103302100) was immobilized on ProteOn NLC sensor chips. Anti-NRP2 antibodies were subsequently flowed over and captured by the anti-human antibody. Cynomolgus NRP2 antigen protein was flowed over the captured antibody at varying concentrations (150, 50, 16.67, 5.56, 1.85 nM). The sensor chip surface was regenerated between each analyte run to remove anti-NRP2 antibodies and NRP2 protein. Data was double referenced against a surface with no anti-NRP2 antibody captured (immobilized anti-human antibody only) and a buffer only blank. Affinity constants were derived by globally fitting sensograms to a bivalent analyte interaction model in the ProteOn manager software. For each anti-NRP2 antibody, data from the multiple NRP2 concentrations was fit as a single data set with dissociation rate constant (kd), association rate constant (kₐ) and Rₘₐₓ values as global parameters. The reported binding affinity is the equilibrium dissociation constant (KD) calculated from kd/kₐ. [0681] Running buffer: 50 mM HEPES, 300 mM NaCl, 5 mM CaCl₂, 0.005% Tween-20, pH 7.4 [0682] Immobilized antibody: CaptureSelect Human Fab-kappa Kinetics Biotin Conjugate, Thermo Fisher Cat #7103302100 [0683] Antigen: Cynomolgus NRP2 (aa23-854) with C-terminal Fc-tag [0684] Regeneration buffer: 10 mM glycine pH 2.0

EC50 [1]: 0.09 nM | Kd [2]: 0.032 nM
B1: aNRP2-10v10 (antibody, V domains shown)
VH: EVQLVQSGAEVKKPGATVKISCKVSGFNIKDYYVHWVQQAPGKGLEWMGRIDVEDDETKYAPKFQGRVTITADTSTDTAYMELSSLRSEDTAVYYCATPIYGAREAWFAYWGQGTLVTVSS
VL: DIQMTQSPSSLSASVGDRVTITCTASSSVSSSYLHWYQQKPGKAPKLLIYRTSNLASGVPSRFSGSGSGTDFTLTISSLQPEDFATYYCHQYYRSPPTFGGGTKVEIK
